Measured values from patent US20150119254.
pKd: −log10 of the molar value.

Legend:
IFN-gamma = target: T1, IFN-gamma (UniProt P01579); assay: SPR; conditions: Ds at n; for binding signal: 150 nM IFN-gamma, 930 s
T1 sequence: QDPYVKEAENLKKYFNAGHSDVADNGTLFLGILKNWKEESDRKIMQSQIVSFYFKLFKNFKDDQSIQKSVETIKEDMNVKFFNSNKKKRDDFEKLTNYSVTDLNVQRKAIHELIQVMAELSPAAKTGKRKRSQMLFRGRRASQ

[1] = test system: T2, VEGF-165 (Homo sapiens), P15692-4; assay: SPR; conditions: for binding signal: 10 nM VEGF-165, 930 s
T2 sequence: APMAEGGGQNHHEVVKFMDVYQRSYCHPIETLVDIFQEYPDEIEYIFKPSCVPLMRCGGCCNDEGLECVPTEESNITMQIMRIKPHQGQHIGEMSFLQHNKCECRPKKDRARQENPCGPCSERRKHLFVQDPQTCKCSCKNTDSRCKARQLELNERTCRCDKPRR

[2] = Ds at n, PBS + 0.005% NP-40, 25 C

“ATCAGTCCACTAATCAGGAAGANGATAGGGTTTGTCTTNTGTTGCCACGCTGGGAG [IF04Ds-57]” was tested, and the binding signal (IFN-gamma) was 0.1 bound ratio.
“TGACCTCGGGTCATTTANTAATGTAGGTNTGGGCTAGGCNGCTAGGTCA [IFd1-3Ds-49b]” was tested, and the pKd (IFN-gamma; 205 mM NaCl, 25 C) was 8.96.
In the case of “ATCAGTCCACATTGGACTTAGCCCAGCAAGACAATCTACGNTATGCCAGAAGTTGG [IF02Ds-57]”, the binding signal (IFN-gamma) was 0.03 bound ratio.
“TCGGGTCATTTAATAATGTAGGTNTGGGCTAGGCNGCTAGTGGAT [IFd1-A2Ds-45]” was tested, and the pKd (IFN-gamma; 205 mM NaCl, 25 C) was 7.70.
With “TCGGGTCATTTANTAATGTAGGTATGGGCTAGGCNGCTAGTGGAT [IFd1-DsADs-45]” the pKd (IFN-gamma; 205 mM NaCl, 25 C) was 6.90.
“TTTTTGTAAACTGCGTCCGAAGGGGCNTGCAGTGANCCCGAATGGGTCCG [VGd1-2Ds-50]” showed a pKd ([1]; Ds at n, 25 C) of 10.77.
In the case of “TCCACTCGGGTCATTTANTAATGTAGGTNTGGGCTAGGCNGCTAGTGGA [IFd1-3Ds-49]”, the pKd (IFN-gamma; 205 mM NaCl, 25 C) was 8.80.
Work on “ATCAGTCCACATCGAGCGTGAGGTCCGAAAGGCGACTCTTNTAACATCAAGTAATG [VG02aDs-57]” yielded a binding signal ([1]; Ds at n) of 0.15 bound ratio.
“GTAAACTGCGTCCGAAGGGGCNTGCAGTGAACCCGAATGGGTCCG [VGd1-DsA-45]” showed a pKd ([1]; Ds at n, 25 C) of 10.03.
For “ATCAGTCCACTCGGGTCGTTTANTAATGTAGGTNTGGGCTAGGCNGCTAGTGGATG [IF07bDs-57]”, the pKd (IFN-gamma; Bound 0.72 (Table 13), 25 C) was 8.70.
For “ATCAGTCCACTCGGGTCGTTTANTAATGTAGGTNTGGGCTAGGCNGCTAGTGGATG [IF07bDs-57 (Table 14)]”, the pKd (IFN-gamma; 205 mM NaCl phosphate pH 7.4, 25 C) was 9.10.
“ATCAGTCCACAAAGTGCTGGGTCCGNATGGCGGGGGGTTAGGCCTCTTTGGGGCGG [VG01Ds-57]” was tested, and the binding signal ([1]; Ds at n) was 0.2 bound ratio.
In the case of “GTAAACTGCGTCCGAAGGGGCNTGCAGTGANCCCGAATGGGTCCG [VGd1-2Ds-45]”, the pKd ([1]; Ds at n, 25 C) was 10.80.
Work on “CGGTAAACTGCGTCCGAAGGGGCNTGCAGTGANCCCGAATGGGTCCG [VGd1-2Ds-47]” yielded a pKd [1, 2] of 11.34.
“GTCCGAAGGGGCNTGCAGTGANCCCGAATGGGTCCG [VGd1-2Ds-36]” gave a pKd ([1]; Ds at n, Bound 0.02, 25 C) of 8.34.
“TCGGGTCATTTAATAATGTAGGTATGGGCTAGGCNGCTAGTGGAT [IFd1-AADs-45]” was tested, and the pKd (IFN-gamma; 205 mM NaCl, 25 C) was 6.95.
“TGTCTAAGTANGGTGGGNTTGGCGGGGNTGTCGGA [Ds-09-1-DsDsDs]” was tested, and the pKd ([1]; Ds at n, PBS + 0.05% NP-40, 25 C, retention 92%) was 8.40.
“ATCAGTCCACTCCTTCTGTCATNGGGCAGGCGCNTTTGGTGTAGNGTTTATCTTGG [IF07aDs-57]” gave a binding signal (IFN-gamma) of 0.07 bound ratio.
Work on “GTAAACTGCGTCCGAAGGGGCNTGCAGTGANCCCGA [VGd1-2Ds-36b]” yielded a pKd ([1]; Ds at n, 25 C) of 10.77.
With “TGTCTAAGTANGGTGGGNTTGGCGGGGATGTCGGA [Ds-09-1-DsDsA]” the pKd ([1]; Ds at n, retention 32%) was less than 7.00.
With “CGGTAAACTGCGTCCGAAGGGGCATGCAGTGAACCCGAATGGGTCCG [VGd1-2A-47]” the pKd ([1]; 25 C) was 9.70.
Sequence “TCGGGTCATTTANTAATGTAGGTNTGGGCTAGGCNGCTAGTGGAT [IFd1-3Ds-45]” has a pKd (IFN-gamma; 205 mM NaCl, 25 C) of 7.82.
“TGTCTAAGTAAGGTGGGNTTGGCGGGGNTGTCGGA [Ds-09-1-ADsDs]” gave a pKd ([1]; Ds at n, PBS + 0.05% NP-40, 25 C, retention 94%) of 9.00.
For “TGTCTAAGTANGGTGGGATTGGCGGGGNTGTCGGA [Ds-09-1-DsADs]”, the pKd ([1]; Ds at n, retention 33%) was less than 7.00.
Sequence “ATCAGTCCACCTATGTGGGTTGGNTGGGGTGTATGTTNGTAGGGCTANGGAGGTGG [IF11Ds-57]” has a binding signal (IFN-gamma) of 0.66 bound ratio.
“GTAAACTGCGTCCGAAGGGGCNTGCAGTGANCCCGAATGGG [VGd1-2Ds-41b]” gave a pKd ([1]; Ds at n, 25 C) of 10.22.
With “CCGGTAAACTGCGTCCGAAGGGGCNTGCAGTGANCCCGAATGGGTCCGG [VGd1-2Ds-49]” the pKd [1, 2] was 11.34.
“GTAAACTGAGTCCGAAGGGGCNTGCAGTGANCCCGAATGGGTCCG [VG20Ds-45]” was tested, and the pKd ([1]; Ds at n, 25 C) was 10.66.
“TGTCTAAGTAAGGTGGGATTGGCGGGGATGTCGGA [Ds-09-1-AAA]” was tested, and the pKd ([1]; retention 28%) was less than 7.00.
In the case of “GTAAACTGCGTCCGAAGGGGCATGCAGTGANCCCGAATGGGTCCG [VGd1-ADs-45]”, the pKd ([1]; Ds at n, 25 C) was 10.43.
Work on “TGTCTAAGTANTGTGGGNTTGGAGGGGNTGTCGGA [Ds-09-1-mDsDsDs]” yielded a pKd ([1]; Ds at n, retention 90%) of 7.30.
“ATCAGTCCACATACGCGGGGGTGTTGAAGGGTTAGTCGGANGTAGTGTGTACAGAG [VG02bDs-57]” gave a binding signal ([1]; Ds at n) of 0.39 bound ratio.
With “TCAGTCCACGGTAAACTGAGTCCGAAGGGGCNTGCAGTGANCCCGAATGGGTCCGG [VG20Ds-57]” the Kd ([1]; Ds at n, printed as uM, evidently pM, 25 C) was 0.0059 nM.
“TCGGGTCATTTANTAATGTAGGTNTGGGCTAGGCAGCTAGTGGAT [IFd1-DsDsA-45]” showed a pKd (IFN-gamma; Bound 0.36) of less than 6.70.
“TCGGGTCGTTTANTAATGTAGGTNTGGGCTAGGCNGCTAGTGGAT [IF07bDs-45]” showed a pKd (IFN-gamma; 205 mM NaCl, 25 C) of 7.70.
With “ATCAGTCCACGAGATGGATGGTAGTGGCCGNACGGGGGGGNTGGAGANGCTGGCTG [VG08Ds-57]” the binding signal ([1]; Ds at n) was 0.21 bound ratio.
With “ACTGCGTCCGAAGGGGCNTGCAGTGANCCCGAATGGGTCCG [VGd1-2Ds-41]” the pKd ([1]; Ds at n, 25 C) was 10.16.
